Publication PMC13391367

Target: UAP56 (UniProt Q13838 1-428)
Assay: pull-down (NeutrAvidin beads, RNA unclamping assay); ATP, 2 mM Mg2+; clamped UAP56-ADP-Pi-RNA complex, no release factor; RNA unclamping: 20 mM HEPES pH 7.9, 40 mM KCl, 2 mM MgCl2, 5% glycerol, 0.1% Igepal CA-630, 1 mM ATP at loading, room temperature, 500 mM KCl wash; cryo-EM: 25
Settings: protein: recombinant; tags: 10xHis-3C (N-term); single strand

Chain of UAP56 (Q13838 whole entry): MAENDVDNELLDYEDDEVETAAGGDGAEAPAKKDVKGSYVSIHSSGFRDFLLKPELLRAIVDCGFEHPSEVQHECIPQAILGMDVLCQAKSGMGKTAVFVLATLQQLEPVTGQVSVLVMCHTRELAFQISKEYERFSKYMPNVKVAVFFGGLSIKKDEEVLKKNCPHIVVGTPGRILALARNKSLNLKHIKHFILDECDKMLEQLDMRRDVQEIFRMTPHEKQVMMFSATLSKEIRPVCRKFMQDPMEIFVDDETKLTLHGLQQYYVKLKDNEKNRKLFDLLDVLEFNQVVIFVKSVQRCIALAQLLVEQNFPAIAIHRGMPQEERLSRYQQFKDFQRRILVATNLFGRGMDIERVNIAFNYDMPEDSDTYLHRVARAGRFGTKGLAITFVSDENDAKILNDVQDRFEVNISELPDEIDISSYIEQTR

B1: biotinylated 15U RNA (ssRNA)
RNA: UUUUUUUUUUUUUUU
binding result: binds
